Experimental data taken from patent US12281340B2, “Method of producing N-acyl-amino group-containing compound” (AJINOMOTO CO., INC., priority 2018, dated 2025).

B1: AtGH3-5: indole-3-acetic acid-amido synthetase GH3.5 from Arabidopsis thaliana, His-tagged (protein, listed as Arabidopsis thaliana)
chain: MPEAPKKESLEVFDLTLDQKNKQKLQLIEELTSNADQVQRQVLEEILTRNADVEYLRRHDLNGRTDRETFKNIMPVITYEDIEPEINRIANGDKSPILSSKPISEFLTSSGTSGGERKLMPTIEEELDRRSLLYSLLMPVMSQFVPGLENGKGMYFLFIKSESKTPGGLPARPVLTSYYKSSHFKERPYDPYTNYTSPNETILCSDSYQSMYSQMLCGLCQHQEVLRVGAVFASGFIRAIKFLEKHWIELVRDIRTGTLSSLITDPSVREAVAKILKPSPKLADFVEFECKKSSWQGIITRLWPNTKYVDVIVTGTMSQYIPTLDYYSNGLPLVCTMYASSECYFGVNLRPLCKPSEVSYTLIPSMAYFEFLPVHRNNGVTNSINLPKALTEKEQQELVDLVDVKLGQEYELVVTTYAGLCRYRVGDLLRVTGFKNKAPQFSFICRKNVVLSIDSDKTDEVELQNAVKNAVTHLVPFDASLSEYTSYADTSSIPGHYVLFWELCLDGNTPIPPSVFEDCCLAVEESFNTVYRQGRVSDKSIGPLEIKIVEPGTFDKLMDYAISLGASINQYKTPRCVKFAPIIELLNSRVVDSYFSPKCPKWVPGHKQWGSN
modifications: His-tag
notes: indole-3-acetic acid-amido synthetase GH3.5 from Arabidopsis thaliana, His-tagged
B2: OsGH3-8: probable indole-3-acetic acid-amido synthetase GH3.8 from Oryza sativa, expressed in E. coli with N-terminal His-tag (protein, listed as Oryza sativa)
chain: MAVMTDVSTTGTALRTPAAGAVKEGDVEKLRFIDEMTTNVDAVQERVLGEILGRNAGTEYLTKCGLDGATDRAAFRAKVPVVSYDDLQPYIQRIANGDRSPILSTHPVSEFLTSSGTSAGERKLMPTIMDELDRRQLLYSLLMPVMNLYVPGLDKGKGLYFLFVKSETKTPGGLTARPVLTSYYKSDHFKNRPYDPYHNYTSPTAAILCADAFQSMYAQMVCGLCQRNDVLRLGAVFASGLLRAIRFLQLNWEQLADDIESGELTPRVTDPSVREAVAAILLPDPELAKLIRAECSKGDWAGIITRVWPNTKYLDVIVTGAMAQYIPTLEFYSGGLPMACTMYASSECYFGLNLRPMCDPSEVSYTIMPNMGYFEFLPVDETGAASGDATQLVDLARVEVGREYELVITTYAGLNRYRVGDVLRVTGFHNAAPQFRFVRRKNVLLSIESDKTDEAELQRAVERASALLRPHGASVVEYTSQACTKRIPGHYVIYWELLTKGAGATVVDADTLGRCCLEMEEALNTVYRQSRVADGSIGPLEIRVVRPGTFEELMDYAISRGASINQYKVPRCVTFPPIVELLDSRVVSSHFSPALPHWTPARRSE
modifications: N-terminal His-tag
notes: probable indole-3-acetic acid-amido synthetase GH3.8 from Oryza sativa, expressed in E. coli with N-terminal His-tag
B3: AtGH3-12: 4-substituted benzoates-glutamate ligase GH3.12 from Arabidopsis thaliana, His-tagged (protein, listed as Arabidopsis thaliana)
chain: MKPIFDINETFEKQLKDLTSNVKSIQDNLLEEIITPNTKTEYLQRFLIDRFDKELFKKNVPIVSYEDIKPYLDRVVNGESSDVISARTITGFLLSSGTSGGAQKMMPWNNKYLDNLTFIYDLRMQVITKHVKGVEEGKGMMFLFTKQESMTPSGLPARVATSSYFKSDYFKNRPSNWYYSYTSPDEVILCPNNTESLYCHLLCGLVQRDEVVRTGSIFASVMVRAIEVLKNSWEELCSNIRSGHLSNWVTDLGCQNSVSLVLGGPRPELADTIEEICNQNSWKGIVKRLWPNTKYIETVVTGSMGQYVPMLNYYCNDLPLVSTTYGSSETTFGINLDPLCKPEDVSYTFMPNMSYFEFIPMDGGDKNDVVDLEDVKLGCTYEPVVTNFAGLYRMRVGDIVLVTGFYNNAPQFKFVRRENVVLSIDSDKTNEEDLFKAVSQAKLVLESSGLDLKDFTSYADTSTFPGHYVVYLEVDTKEGEEKETAQFELDEEALSTCCLVMEESLDNVYKRCRFKDGSIGPLEIRVVRQGTFDSLMDFFISQGASTGQYKTPRCIKSGKALQVLETCVVAKFFSI
modifications: His-tag
notes: 4-substituted benzoates-glutamate ligase GH3.12 from Arabidopsis thaliana, His-tagged

Tests used:
[1] = Synthesis of N-caprinoylamino acid using purified acylamino acid synthetase, UPLC-MS detection; assay type: biochemical; design: key: +: Detected; −: Not detected; conditions: +ATP
Summary of the method: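 Purified enzyme (50 μg) with 5 mM amino acid, 5 mM sodium caprate, 10 mM ATP, 10 mM MgCl2, 1 mM DTT in Tris-HCl pH 8.0, 24 h at 25° C; product detected by UPLC-MS (ESI-negative) as the N-caprinoyl amino acid mass signal.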

[2] = Synthesis of N-lauroylamino acid / N-lauroylamino acid derivative using purified acylamino acid synthetase, UPLC-MS detection; assay type: biochemical; design: key: +: Detected; −: Not detected; conditions: +ATP
[3] = substrates GABA and sodium caprate
[4] = substrates Gly and sodium caprate
[5] = substrates L-Ala and sodium caprate
[6] = substrates L-Arg and sodium caprate
[7] = substrates L-Asn and sodium caprate
[8] = substrates L-Asp and sodium caprate
[9] = substrates L-Cys and sodium caprate
[10] = substrates L-Gln and sodium caprate
[11] = substrates L-Glu and sodium caprate
[12] = substrates L-His and sodium caprate
[13] = substrates L-Ile and sodium caprate
[14] = substrates L-Leu and sodium caprate
[15] = substrates L-Lys and sodium caprate
[16] = substrates L-Met and sodium caprate
[17] = substrates L-Phe and sodium caprate
[18] = substrates L-Pro and sodium caprate
[19] = substrates L-Ser and sodium caprate
[20] = substrates L-Thr and sodium caprate
[21] = substrates L-Trp and sodium caprate
[22] = substrates L-Tyr and sodium caprate
[23] = substrates L-Val and sodium caprate
[24] = substrates β-Ala and sodium caprate
[25] = substrates Sarcosine and sodium laurate
[26] = substrates Taurine and sodium laurate

Molecule	signal of molecular weight corresponding to N-caprinoyl amino acid [1, 3]	signal of molecular weight corresponding to N-caprinoyl amino acid [1, 4]	signal of molecular weight corresponding to N-caprinoyl amino acid [1, 5]	signal of molecular weight corresponding to N-caprinoyl amino acid [1, 6]	signal of molecular weight corresponding to N-caprinoyl amino acid [1, 7]	signal of molecular weight corresponding to N-caprinoyl amino acid [1, 8]	signal of molecular weight corresponding to N-caprinoyl amino acid [1, 9]	signal of molecular weight corresponding to N-caprinoyl amino acid [1, 10]	signal of molecular weight corresponding to N-caprinoyl amino acid [1, 11]	signal of molecular weight corresponding to N-caprinoyl amino acid [1, 12]	signal of molecular weight corresponding to N-caprinoyl amino acid [1, 13]	signal of molecular weight corresponding to N-caprinoyl amino acid [1, 14]	signal of molecular weight corresponding to N-caprinoyl amino acid [1, 15]	signal of molecular weight corresponding to N-caprinoyl amino acid [1, 16]	signal of molecular weight corresponding to N-caprinoyl amino acid [1, 17]	signal of molecular weight corresponding to N-caprinoyl amino acid [1, 18]	signal of molecular weight corresponding to N-caprinoyl amino acid [1, 19]	signal of molecular weight corresponding to N-caprinoyl amino acid [1, 20]	signal of molecular weight corresponding to N-caprinoyl amino acid [1, 21]	signal of molecular weight corresponding to N-caprinoyl amino acid [1, 22]	other results
B1	+	+	+	+	+	+	+	+	+	+	+	+	+	+	+	+	+	+	+	+	signal of molecular weight corresponding to N-caprinoyl amino acid [1, 23]: +; signal of molecular weight corresponding to N-caprinoyl amino acid [1, 24]: +; signal of molecular weight corresponding to N-lauroyl amino acid derivative [2, 25]: +; signal of molecular weight corresponding to N-lauroyl amino acid derivative [2, 26]: +
B2	+	+	+	+	+	+	+	+	+	+	+	+	+	+	+	+	+	+	+	+	signal of molecular weight corresponding to N-caprinoyl amino acid [1, 23]: +; signal of molecular weight corresponding to N-caprinoyl amino acid [1, 24]: +; signal of molecular weight corresponding to N-lauroyl amino acid derivative [2, 25]: −; signal of molecular weight corresponding to N-lauroyl amino acid derivative [2, 26]: +
B3	+	+	+	+	+	+	+	+	+	+	+	+	+	+	+	+	+	+	+	+	signal of molecular weight corresponding to N-caprinoyl amino acid [1, 23]: +; signal of molecular weight corresponding to N-caprinoyl amino acid [1, 24]: +; signal of molecular weight corresponding to N-lauroyl amino acid derivative [2, 25]: −; signal of molecular weight corresponding to N-lauroyl amino acid derivative [2, 26]: +
